The results in this text go back to article PMC11441081 (2024).

The target in experiment [1] is T1, EIV-HA protein (hemagglutinin of equine influenza virus H3N8), wild type (equine influenza virus (H3N8)). Put plainly: SPR.
Experiment [2] has as its target T1, EIV-HA protein (hemagglutinin of equine …). Put plainly: SPR. The source holds these as a separate data set. In general terms: Surface plasmon resonance follows binding to a sensor surface in real time, without labels.
Experiment [3] shares this target. The experiment can be described thus: ELISA. On the technique in general: ELISA stands for enzyme-linked immunosorbent assay.

B1: H81 recombinant antibody (equine Ig (Fab)2 recombined with homo Ig Fc) (antibody, V domains shown)
VH: QVQLKESGPGLVKPSQTLSLTCTVSGLSLSSDAVGWVRQAPGKGLEWVACIYGDESTYYNPALKSRAGITKDTSKSQVYLTLNSLTGEDTAVYYCAGLVYEYYAGTWTIVFELKYWGQGILVTVSS
VL: QSLTQPASVSGTLGQTVTISCSGSSSNIGHRYSTVGWYQQIPGTAPKTLIYGSDKRASGVPDRFSGSKSGNTATLTISGLQAEDEADYYCGSYYYASSDSSGGAFGGGTHLTIA
By Kd is commonly meant the concentration at which binding is half-saturated. Low readings indicate a tighter complex, high ones a looser complex. A word on the koff: it is a measure of how fast the partners let go of each other. The EC50 is the concentration at which the effect is half-maximal. A high value points to a less potent agent. Turning to B1, binding in experiment [1] was put at a Kd of 10.1 nM. In addition, the koff in experiment [2] is 8.52e-05 s⁻¹. The molecule also returned a concentration giving a half-maximal response (EC50) in experiment [3] of 4.2 ng/mL.
